Consider three molecules from article PMC10721474 (Plant Communications, 2023).

In one data set the target is T1, PIN1 (Arabidopsis thaliana, UniProt Q9C6B8).
T1 sequence (Q9C6B8 1-622): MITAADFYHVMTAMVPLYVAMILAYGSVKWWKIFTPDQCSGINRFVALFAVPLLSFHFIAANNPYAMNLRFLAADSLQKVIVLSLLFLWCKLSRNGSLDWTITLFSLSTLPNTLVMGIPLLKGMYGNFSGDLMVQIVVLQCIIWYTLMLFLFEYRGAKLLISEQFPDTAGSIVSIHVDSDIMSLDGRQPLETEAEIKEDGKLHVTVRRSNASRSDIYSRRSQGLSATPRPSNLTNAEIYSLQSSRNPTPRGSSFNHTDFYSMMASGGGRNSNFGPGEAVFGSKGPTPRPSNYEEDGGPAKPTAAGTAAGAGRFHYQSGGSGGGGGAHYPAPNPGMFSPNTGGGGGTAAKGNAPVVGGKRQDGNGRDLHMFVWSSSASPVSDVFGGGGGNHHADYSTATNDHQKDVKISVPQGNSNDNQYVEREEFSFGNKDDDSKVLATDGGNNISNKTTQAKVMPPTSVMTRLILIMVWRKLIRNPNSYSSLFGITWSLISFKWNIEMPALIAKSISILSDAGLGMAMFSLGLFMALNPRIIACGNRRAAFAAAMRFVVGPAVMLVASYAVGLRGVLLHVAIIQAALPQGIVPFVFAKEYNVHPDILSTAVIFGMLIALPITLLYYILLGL
T1 sequence (Q9FG74 1-498 partner): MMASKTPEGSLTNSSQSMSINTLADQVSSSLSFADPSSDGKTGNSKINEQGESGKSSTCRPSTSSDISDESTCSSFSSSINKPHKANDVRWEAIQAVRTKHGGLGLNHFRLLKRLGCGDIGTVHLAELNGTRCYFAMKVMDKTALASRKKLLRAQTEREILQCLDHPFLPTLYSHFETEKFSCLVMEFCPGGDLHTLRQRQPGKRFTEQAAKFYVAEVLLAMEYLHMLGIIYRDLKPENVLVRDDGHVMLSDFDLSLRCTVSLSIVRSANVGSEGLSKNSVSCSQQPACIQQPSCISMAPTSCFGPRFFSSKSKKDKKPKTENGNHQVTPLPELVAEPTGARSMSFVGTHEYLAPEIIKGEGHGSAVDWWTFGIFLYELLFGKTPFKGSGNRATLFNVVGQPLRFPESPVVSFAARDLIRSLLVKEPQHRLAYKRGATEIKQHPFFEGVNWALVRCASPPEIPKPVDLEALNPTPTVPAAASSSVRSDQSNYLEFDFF
As to the kind of experiment: [3H]IAA efflux assay in HEK293F cells. It is filed as cell-based.

The data set “cryo-EM structure” concerns the molecule itself. The data set can be described thus: cryo-EM structure.
Data set [1] deals with Arabidopsis thaliana PIN-FORMED 1 (PIN1) auxin transporter (Arabidopsis thaliana, UniProt Q9C6B8). The data set can be described thus: cryo-EM structure.

Turning to `O=C(O)Cc1c[nH]c2ccccc12` [IAA, indole-3-acetic acid], the “[3H]IAA efflux assay in HEK293F cells” value on PIN1 is “had much lower retention of [^3H]-IAA than cells transfected with the empty vector”.

B1: Arabidopsis thaliana PIN-FORMED 1 (PIN1) auxin transporter (natural protein)
chain: MITAADFYHVMTAMVPLYVAMILAYGSVKWWKIFTPDQCSGINRFVALFAVPLLSFHFIAANNPYAMNLRFLAADSLQKVIVLSLLFLWCKLSRNGSLDWTITLFSLSTLPNTLVMGIPLLKGMYGNFSGDLMVQIVVLQCIIWYTLMLFLFEYRGAKLLISEQFPDTAGSIVSIHVDSDIMSLDGRQPLETEAEIKEDGKLHVTVRRSNASRSDIYSRRSQGLSATPRPSNLTNAEIYSLQSSRNPTPRGSSFNHTDFYSMMASGGGRNSNFGPGEAVFGSKGPTPRPSNYEEDGGPAKPTAAGTAAGAGRFHYQSGGSGGGGGAHYPAPNPGMFSPNTGGGGGTAAKGNAPVVGGKRQDGNGRDLHMFVWSSSASPVSDVFGGGGGNHHADYSTATNDHQKDVKISVPQGNSNDNQYVEREEFSFGNKDDDSKVLATDGGNNISNKTTQAKVMPPTSVMTRLILIMVWRKLIRNPNSYSSLFGITWSLISFKWNIEMPALIAKSISILSDAGLGMAMFSLGLFMALNPRIIACGNRRAAFAAAMRFVVGPAVMLVASYAVGLRGVLLHVAIIQAALPQGIVPFVFAKEYNVHPDILSTAVIFGMLIALPITLLYYILLGL
On to B1, for which the binding result in “cryo-EM structure” is listed as “binds”.

B2: synthetic nanobody sybody-19 (VHH)
VHH: QVQLVESGGGLVQAGGSLRLSCAASGFPVDITWMEWYRQAPGKEREWVAAIYSSGQSTWYADSVKGRFTISRDNAKNTVYLQMNSLKPEDTAVYYCRVKVGAWYKGQGTQVTVSA
For the molecule B2, the binding result in data set [1] is listed as “binds”.
